Assay results reported in patent US20260265396A1 (BIOARCTIC, published 2026).

T1: chimeric TfR1 consisting of human apical domain grafted on mouse TfR1 ectodomain (SEQ ID NO:57) (human/mouse chimera)
T1 construct: His-tagged ELISA coat; also called h/m apical domain chimera
T1 chain: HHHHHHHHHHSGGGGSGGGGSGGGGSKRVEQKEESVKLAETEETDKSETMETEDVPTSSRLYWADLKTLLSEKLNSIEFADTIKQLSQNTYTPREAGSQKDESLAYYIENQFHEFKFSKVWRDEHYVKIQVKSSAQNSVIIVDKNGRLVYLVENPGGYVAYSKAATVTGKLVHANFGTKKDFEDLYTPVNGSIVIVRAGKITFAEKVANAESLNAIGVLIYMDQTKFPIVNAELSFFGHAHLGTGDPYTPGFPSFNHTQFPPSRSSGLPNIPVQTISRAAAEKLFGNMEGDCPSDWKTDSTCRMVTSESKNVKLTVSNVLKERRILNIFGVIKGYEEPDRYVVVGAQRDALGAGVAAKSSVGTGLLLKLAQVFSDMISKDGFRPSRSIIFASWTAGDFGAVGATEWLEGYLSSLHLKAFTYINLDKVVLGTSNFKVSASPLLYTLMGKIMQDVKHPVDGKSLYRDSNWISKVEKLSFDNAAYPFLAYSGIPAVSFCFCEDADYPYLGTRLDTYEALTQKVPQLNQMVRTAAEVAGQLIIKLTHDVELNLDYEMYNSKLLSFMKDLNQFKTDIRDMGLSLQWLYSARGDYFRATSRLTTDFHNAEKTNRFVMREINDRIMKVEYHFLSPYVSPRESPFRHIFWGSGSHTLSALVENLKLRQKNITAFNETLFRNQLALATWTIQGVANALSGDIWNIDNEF

B1: h26D3 Fab (humanized 26D3) (Fab, V domains shown)
VH: EVQLVQSGAEVKKPGSSVKVSCKASGYIFTDYNMDWVRQAPGQGLEWIGDINPDYDTTSYNEKFKGRATLTVDKSTSTAYMELSSLRSEDTAVYYCARGGYSGSSYYHPMDYWGQGTLVTVSS
VL: DIQMTQSPSSVSASVGDRVTITCKSSQSLLYSTNQKNYLAWYQQKPGKAPKLLIYWASTRESGVPSRFSGSGSGTDFTLTISSLQPEDFATYYCQQYFIYPRTFGQGTKVEIK
notes: His-tagged Fab from ExpiCHO cells
B2: mouse monoclonal antibody 26D3 (antibody, mouse IgG2a, V domains shown)
VH: EVQLQQFGVELVKPGASVKISCKASGYIFTDYNMDWVKQSHGKSLEWIGDINPDYDTTSYNEKFKGKATLTVDKSSSTAYMELRSLTSEDTAVYYCARGGYSGSSYYHPMDYWGQGTSVTVSS
VL: DIVMSQSPSSLAVSVGEKITMSCKSSQSLLYSTNQKNYLAWYQQKPGQSPELLIYWASTRESGVPDRFTGSGSGTDFTLTISNVRAEDLAVYYCQQYFIYPRTFGGGTKLEIK

Experiments:
[1] = target: T2, human TfR1, recombinant, construct not stated for the experiment (human, UniProt P02786 89-760, limits assumed); experiment: indirect ELISA, plate coated with 1 ug/ml recombinant hTfR1 ectodomain, Fab 1:3 dilution series, anti-human IgG F(ab')2-HRP [lower panel hTfR1]
T2 construct: Biotinylated in the binning and scFv-Fc BLI experiments; also called hTfR1; biotinylated hTfR1
T2 sequence (P02786 89-760 limits assumed): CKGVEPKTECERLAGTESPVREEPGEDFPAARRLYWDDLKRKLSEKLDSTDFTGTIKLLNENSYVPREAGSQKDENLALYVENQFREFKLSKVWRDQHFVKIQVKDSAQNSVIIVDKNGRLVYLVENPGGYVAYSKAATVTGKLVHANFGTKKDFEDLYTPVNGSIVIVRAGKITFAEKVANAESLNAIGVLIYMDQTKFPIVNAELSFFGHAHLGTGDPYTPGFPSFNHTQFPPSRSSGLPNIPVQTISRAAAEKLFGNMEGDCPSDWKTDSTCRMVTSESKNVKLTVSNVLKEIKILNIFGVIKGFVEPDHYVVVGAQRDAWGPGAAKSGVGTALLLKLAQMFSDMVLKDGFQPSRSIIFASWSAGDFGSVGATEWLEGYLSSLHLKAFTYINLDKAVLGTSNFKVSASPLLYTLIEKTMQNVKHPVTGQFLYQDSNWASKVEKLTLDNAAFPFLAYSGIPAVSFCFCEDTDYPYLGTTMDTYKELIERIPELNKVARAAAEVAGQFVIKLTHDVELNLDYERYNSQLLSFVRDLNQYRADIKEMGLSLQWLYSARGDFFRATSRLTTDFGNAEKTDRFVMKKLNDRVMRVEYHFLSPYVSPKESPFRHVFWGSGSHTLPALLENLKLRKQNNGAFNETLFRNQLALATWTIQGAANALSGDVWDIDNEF

[2] = target: T1, chimeric TfR1 consisting of human …; experiment: indirect ELISA, plate coated with 1 ug/ml h/m apical domain chimera (axis labelled TfR (ng/ml)) [C]
Description: The coated plates were then blocked. Dilution series of mouse IgG of the analyzed antibodies were prepared in PBS and incubated on the ELISA plates. Unbound antibodies were then washed off before incubating wells with a HRP-conjugated secondary, anti-mouse-IgG for 1 h. Plates were then washed again before addition of HRP substrate TMB for development and detection of antibody binding to the wells. TMB development was stopped by adding 0.5 M H₂SO₄ to the wells and ELISA responses measured as the OD at 450 nm in an ELISA plate reader.

Row | EC50 (read off the curve) [1] [nM] | binding result [2] | Binder
1 | ~500 | – | B1
2 | – | no binding (tested: about 650 ng/ml) | B2
